Test results taken from article PMC5342210, “Staphylococcal protein Ecb impairs complement receptor-1 mediated recognition of opsonized bacteria” (PLoS ONE, 2017).

Assays:
C3b [1] = biological target: C3b (UniProt P01024); test: radioligand binding; C3b (5 ug/ml) coated on microtiter wells, blocked with 0.5% BSA; 125I-sCR1 (30,000 cpm) mixed with the unlabelled protein (0-0.33 uM) in 1/2 PBS with 0.1% BSA; 60 min, 37 C; bound radioactivity counted
Target sequence in this assay (P01024 23-667, chain 1 of 2): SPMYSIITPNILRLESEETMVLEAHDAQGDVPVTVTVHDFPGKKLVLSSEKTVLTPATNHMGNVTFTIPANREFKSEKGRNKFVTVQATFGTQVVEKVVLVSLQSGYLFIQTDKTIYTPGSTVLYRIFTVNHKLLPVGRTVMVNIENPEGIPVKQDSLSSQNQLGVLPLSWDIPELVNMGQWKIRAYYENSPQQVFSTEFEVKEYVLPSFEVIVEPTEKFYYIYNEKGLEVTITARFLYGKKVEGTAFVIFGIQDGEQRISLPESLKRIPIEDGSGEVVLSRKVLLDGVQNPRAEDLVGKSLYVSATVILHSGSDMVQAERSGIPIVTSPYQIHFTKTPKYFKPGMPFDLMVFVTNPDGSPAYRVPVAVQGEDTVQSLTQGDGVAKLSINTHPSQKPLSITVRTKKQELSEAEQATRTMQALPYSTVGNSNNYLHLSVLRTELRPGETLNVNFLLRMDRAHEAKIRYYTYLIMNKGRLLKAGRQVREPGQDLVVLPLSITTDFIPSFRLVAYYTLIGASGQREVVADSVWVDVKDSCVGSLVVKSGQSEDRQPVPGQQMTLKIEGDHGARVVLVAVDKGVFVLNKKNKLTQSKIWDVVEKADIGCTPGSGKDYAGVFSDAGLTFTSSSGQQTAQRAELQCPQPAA
Target sequence in this assay (P01024 749-1663, chain 2 of 2): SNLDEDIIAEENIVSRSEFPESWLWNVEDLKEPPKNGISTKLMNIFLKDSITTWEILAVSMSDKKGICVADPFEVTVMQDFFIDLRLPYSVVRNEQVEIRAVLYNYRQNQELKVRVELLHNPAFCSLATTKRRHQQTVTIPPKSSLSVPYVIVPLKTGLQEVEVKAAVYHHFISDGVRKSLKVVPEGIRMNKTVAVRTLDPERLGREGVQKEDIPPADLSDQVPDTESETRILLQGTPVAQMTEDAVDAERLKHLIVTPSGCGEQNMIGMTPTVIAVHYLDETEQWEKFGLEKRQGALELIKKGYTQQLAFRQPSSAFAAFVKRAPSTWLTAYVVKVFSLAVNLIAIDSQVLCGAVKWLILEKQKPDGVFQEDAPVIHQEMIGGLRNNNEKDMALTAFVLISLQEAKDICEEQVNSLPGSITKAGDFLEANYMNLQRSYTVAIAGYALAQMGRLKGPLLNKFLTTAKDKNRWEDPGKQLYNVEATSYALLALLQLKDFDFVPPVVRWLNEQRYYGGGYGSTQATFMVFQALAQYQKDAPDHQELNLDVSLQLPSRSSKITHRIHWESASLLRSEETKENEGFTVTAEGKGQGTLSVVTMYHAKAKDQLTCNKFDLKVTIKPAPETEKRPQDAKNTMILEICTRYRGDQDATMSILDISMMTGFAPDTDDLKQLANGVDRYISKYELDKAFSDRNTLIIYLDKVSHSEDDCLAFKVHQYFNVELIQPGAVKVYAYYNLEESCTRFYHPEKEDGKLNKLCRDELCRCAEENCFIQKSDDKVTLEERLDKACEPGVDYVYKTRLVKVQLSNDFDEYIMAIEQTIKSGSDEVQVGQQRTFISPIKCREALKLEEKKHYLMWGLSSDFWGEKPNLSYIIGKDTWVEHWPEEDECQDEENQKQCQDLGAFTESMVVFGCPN

C3b [2] = biological target: T1, C3b (UniProt P01024); test: as above; details: both partners purified
T1 construct: complement C3 beta chain, as it stands in C3b; alpha'-chain of C3b, the cut product of the C3 alpha chain (here made with trypsin); the C3b was detected with anti-human C3 and anti-human C3c antibodies; also called solid-phase C3b; source: C3 purified from plasma; C3b prepared from C3 using trypsin
T1 sequence (P01024 23-667, chain 1 of 2): as the sequence (P01024 23-667, chain 1 of 2) above
T1 sequence (P01024 749-1663, chain 2 of 2): as the sequence (P01024 749-1663, chain 2 of 2) above

Extracellular complement binding protein (Ecb) (natural protein)
percent inhibition of sCR1 binding to C3b (C3b [1]): 80%

B1: Factor H (FH) (natural protein)
chain: EDCNELPPRRNTEILTGSWSDQTYPEGTQAIYKCRPGYRSLGNVIMVCRKGEWVALNPLRKCQKRPCGHPGDTPFGTFTLTGGNVFEYGVKAVYTCNEGYQLLGEINYRECDTDGWTNDIPICEVVKCLPVTAPENGKIVSSAMEPDREYHFGQAVRFVCNSGYKIEGDEEMHCSDDGFWSKEKPKCVEISCKSPDVINGSPISQKIIYKENERFQYKCNMGYEYSERGDAVCTESGWRPLPSCEEKSCDNPYIPNGDYSPLRIKHRTGDEITYQCRNGFYPATRGNTAKCTSTGWIPAPRCTLKPCDYPDIKHGGLYHENMRRPYFPVAVGKYYSYYCDEHFETPSGSYWDHIHCTQDGWSPAVPCLRKCYFPYLENGYNQNYGRKFVQGKSIDVACHPGYALPKAQTTVTCMENGWSPTPRCIRVKTCSKSSIDIENGFISESQYTYALKEKAKYQCKLGYVTADGETSGSITCGKDGWSAQPTCIKSCDIPVFMNARTKNDFTWFKLNDTLDYECHDGYESNTGSTTGSIVCGYNGWSDLPICYERECELPKIDVHLVPDRKKDQYKVGEVLKFSCKPGFTIVGPNSVQCYHFGLSPDLPICKEQVQSCGPPPELLNGNVKEKTKEEYGHSEVVEYYCNPRFLMKGPNKIQCVDGEWTTLPVCIVEESTCGDIPELEHGWAQLSSPPYYYGDSVEFNCSESFTMIGHRSITCIHGVWTQLPQCVAIDKLKKCKSSNLIILEEHLKNKKEFDHNSNIRYRCRGKEGWIHTVCINGRWDPEVNCSMAQIQLCPPPPQIPNSHNMTTTLNYRDGEKVSVLCQENYLIQEGEEITCKDGRWQSIPLCVEKIPCSQPPQIEHGTINSSRSSQESYAHGTKLSYTCEGGFRISEENETTCYMGKWSSPPQCEGLPCKSPPEISHGVVAHMSDSYQYGEEVTYKCFEGFGIDGPAIAKCLGEKWSHPPSCIKTDCLSLPSFENAIPMGEKKDVYKAGEQVTYTCATYYKMDGASNVTCINSRWTGRPTCRDTSCVNPPTVQNAYIVSRQMSKYPSGERVRYQCRSPYEMFGDEEVMCLNGNWTEPPQCKDSTGKCGPPPPIDNGDITSFPLSVYAPASSVEYQCQNLYQLEGNKRITCRNGQWSEPPKCLHPCVISREIMENYNIALRWTAKQKLYSRTGESVEFVCKRGYRLSSRSHTLRTTCWDGKLEYPTCAKR
notes: complement factor H, plasma regulator; source: purified from plasma
binding result (C3b [2]): binds
